Assay results from PMC6226330.

Assays:
Test in all cases: purified protein, by the assay type
Conditions in all cases: pH 8.0; 25.0 °C
[1] = substrate: Nc1ccc(C(=O)O)cc1
[2] = substrate: Nc1ccc(C(=O)O)c(F)c1
[3] = substrate: Nc1ccc(C(=O)O)c(O)c1

B1: S. aureus DHPS (Staphylococcus aureus) (protein)
chain: MTKTKIMGILNVTPDSFSDGGKFNNVESAVTRVKAMMDEGADIIDVGGVSTRPGHEMITVEEELNRVLPVVEAIVGFDVKISVDTFRSEVAEACLKLGVDIINDQWAGLYDHRMFQVVAKYDAEIVLMHNGNGNRDEPVVEEMLTSLLAQAHQAKIAGIPSNKIWLDPGIGFAKTRNEEAEVMARLDELVATEYPVLLATSRKRFTKEMMGYDTTPVERDEVTAATTAYGIMKGVRAVRVHNVELNAKLAKGIDFLKENENARHNFS
- Km [1]: 2 ± 1 µM
- kcat [1]: 170 ± 15 min^–1
- Km [2]: 5 ± 2 µM
- kcat [2]: 200 ± 20 min^–1
- Km [3]: 8 ± 1 µM
- kcat [3]: 220 ± 10 min^–1
